In PMC9502102, “Thrombin Determination Using Graphene Oxide Sensors with Co-Assisted Amplification”:

Molecular target: thrombin (UniProt P00734;P00734 328-363;364-622)
Assay: fluorescence recovery (FAM-TBA released from GO/capture DNA); FAM-TBA with capture DNA on PEG-blocked GO; thrombin 0.0025-15 nM; sensor LOD is not a Kd; GO 5 ug/mL, 10 nM FAM-DNA, 30 min incubation (covalent sensor); PBS listed in materials, PBS vs water compared in Fig. S6; pH, salt and temperature not in the m

Q: Does AAAAGTCCGTGGTAGGGCAGGTTGGGGTGACT (ssDNA) [Thrombin binding aptamer (TBA)] bind?
A: binds
